Laboratory results from PMC4937676 (Asia Oceania Journal of Nuclear Medicine and Biology, 2016).
Like-named read-outs stand apart in the source and are kept apart here.

How the values were obtained:
[1] = set-up: species or system human
Experimental: The accumulated source activity for each animal organ was calculated according to Equation 4, where A (t) is the activity of each organ at time t: For this purpose, data points representing the non-decay corrected percentage of the injected dose were created. A linear approximation was applied between the two experimental points of time. The curves were extrapolated to infinity by fitting the tail of each curve to a mono-exponential curve with an exponential coefficient equal to the physical decay constant of ^68Ga. The accumulated activity in animals was calculated by computing the area under the curves, extrapolated to the accumulated activity in human organs, using a method proposed by Sparks et al. (Equation 5) and the standard mean weight of each human organ ([21], [22], [23]): The absorbed dose in human organs was calculated by the Radiation Absorbed Dose Assessment Resource (RADAR) formalism, based on the biodistribution data in rats ([22]): In the equation above, ni is the number of radiations with energy E emitted per nuclear transition, Ei is the energy per radiation (MeV), Qi is the fraction of emitted energy absorbed by the target, m is the mass of the target region (kg) and k is the proportionality constant [drawing 8] DF represents the physical decay characteristics of the radionuclide, the range of emitted radiations and the organ size and configuration, expressed in mGy/MBq.s ([24]). In this study, DF values were obtained from OLINDA/EXM software ([22]). The effective absorbed dose in each organ was calculated, using the following formula: […] where HT is the equivalent absorbed dose in each organ and WT is the tissue-weighing factor, which represents a subjective balance between different stochastic health risks ([25]). WT was obtained from the International Commission on Radiological Protection (ICRP) publication 103 ([26]).

[2] = in vivo; details: male, Syrian, rat, iv, 5.55 MBq, total radioactivity, Percentage of injected dose per gram (%ID/g)
Experimental: (§1) The total amount of radioactivity injected in each animal was measured by counting the 1 mL syringe before and after the injection in a dose calibrator with fixed geometry. The biodistribution of the solution among tissues was determined by sacrificing four rats at each selected time interval (15, 30, 60 and 120 min) after injection, based on animal care protocols.
(§2) Blood samples were rapidly taken after animal sacrifice. The tissues (heart, kidneys, spleen, stomach, intestine, lung, liver, skin, bone, muscle, thyroid, adrenal glands, salivary gland and pancreas) were weighed and rinsed with normal saline and their activities were determined, using a p-type coaxial HPGe detector, coupled with a multi-channel analyzer, based on Equation 1 ([20]):
(§3) The percentage of the injected dose per gram (%ID/g) for different organs was calculated by dividing the amount of activity in each tissue (A) to the decay-corrected injected activity and the mass of each organ. Four rats were sacrificed at each time interval. All values were expressed as mean ± standard deviation and the data were compared, using student’s t-test.

[3] = cited from earlier work
Experimental: In this regard, in a study by Ugur et al., the absorbed dose of kidneys was calculated to be 1090 mGy/MBq, based on biodistribution studies on AR42J rat pancreatic tumors ([2]), whereas an absorbed dose of 0.082 mGy/MBq was reported in kidneys of patients with disseminated neuroendocrine tumors ([37]). However, the absorbed dose of the pancreas as a somatostatin receptor-positive organ was not evaluated in previous research. || As mentioned earlier, the dose delivered to the pancreas has not been evaluated in previous literature. […] On the other hand, the absorbed dose of adrenal glands was somewhat lower than the value reported in the mentioned study, while being in great accordance with the absorbed dose of liver after ^68Ga-DOTATATE injection (0.015 mGy/MBq) in a study by Walker et al. ([41]). || In the present study, the effective absorbed dose was calculated at 0.026 mSv/MBq, which was higher than the value reported by Sandstrom and colleagues (0.021 mSv/MBq). The lower effective absorbed dose in the mentioned study corresponded to lower organ consideration for dosimetric calculations, compared to the present study. Finally, the dose received by critical organs was well within the acceptable range for diagnostic nuclear medicine procedures ([31], [42]).

[4] = Biodistribution in Syrian rats after intravenous injection; details: male Syrian rats; for Percentage of injected dose per gram (%ID/g), Blood / Percentage of injected dose per gram (%ID/g), Bone / Percentage of injected dose per gram (%ID/g), Intestine / Percentage of injected dose per gram (%ID/g), Kidneys / Percentage of injected dose per gram (%ID/g), Liver / Percentage of injected dose per gram (%ID/g), Spleen / Percentage of injected dose per gram (%ID/g), Stomach: 5.55 MBq i.v. tail vein, mean ± SD, n = 4
Experimental: as §1, §2, §3

[5] = 5.55 MBq i.v., maximum over 15-120 min, time not stated

Question: For `C[C@@H](O)[C@@H]1NC(=O)[C@H](CCCCN)NC(=O)[C@@H](Cc2c[nH]c3ccccc23)NC(=O)[C@H](Cc2ccc(O)cc2)NC(=O)[C@@H](NC(=O)[C@@H](Cc2ccccc2)NC(=O)CN2CCN(CC(=O)O)CCN(CC(=O)O)CCN(CC(=O)O)CC2)CSSC[C@@H](C(=O)N[C@H](CO)[C@@H](C)O)NC1=O` [^68Ga-DOTATOC, Gallium-68 DOTA-DPhe^1-Tyr^3-Octreotide, metal not drawn], which Effective absorbed dose [1] is on record?
Answer: 0.026 mSv/MBq

Question: And the “Equivalent absorbed dose in humans, Adrenals” value [1]?
Answer: 0.010 mGy/MBq

Question: What about the “Equivalent absorbed dose in humans, Bone Surf” value [1] of the same molecule?
Answer: 0.008 mGy/MBq

Question: What about the “Equivalent absorbed dose in humans, Heart” value [1] of the same molecule?
Answer: 0.004 mGy/MBq

Question: What about the “Equivalent absorbed dose in humans, Kidneys” value [1] of the same molecule?
Answer: 0.074 mGy/MBq

Question: What about the “Equivalent absorbed dose in humans, Liver” value [1] of the same molecule?
Answer: 0.010 mGy/MBq

Question: What about the “Equivalent absorbed dose in humans, Lungs” value [1] of the same molecule?
Answer: 0.001 mGy/MBq

Question: What about the “Equivalent absorbed dose in humans, Red Marrow” value [1] of the same molecule?
Answer: 0.003 mGy/MBq

Question: What about the “Equivalent absorbed dose in humans, Small Intestine” value [1] of the same molecule?
Answer: 0.008 mGy/MBq

Question: And the “Equivalent absorbed dose in humans, Spleen” value [1]?
Answer: 0.009 mGy/MBq

Question: And the “Equivalent absorbed dose in humans, Stomach” value [1]?
Answer: 0.003 mGy/MBq

Question: And the “Equivalent absorbed dose in humans, Total Body” value [1]?
Answer: 0.008 mGy/MBq

Question: What about the tissue uptake at 0.25 h ([2]; Adrenal) of the same molecule?
Answer: 0.91 ± 0.05 %ID/g

Question: What about the tissue uptake at 0.5 h ([2]; Adrenal) of the same molecule?
Answer: 0.75 ± 0.06 %ID/g

Question: And the tissue uptake at 1 h ([2]; Adrenal)?
Answer: 0.6 ± 0.04 %ID/g

Question: And the tissue uptake at 2 h ([2]; Adrenal)?
Answer: 0.44 ± 0.01 %ID/g

Question: And the tissue uptake at 0.25 h ([2]; Blood)?
Answer: 4.51 ± 0.21 %ID/g

Question: What about the tissue uptake at 0.5 h ([2]; Blood) of the same molecule?
Answer: 1.98 ± 0.15 %ID/g

Question: And the tissue uptake at 1 h ([2]; Blood)?
Answer: 1.53 ± 0.11 %ID/g

Question: And the tissue uptake at 0.25 h ([2]; Bone)?
Answer: 0.95 ± 0.08 %ID/g

Question: And the tissue uptake at 0.5 h ([2]; Bone)?
Answer: 0.58 ± 0.03 %ID/g

Question: What about the tissue uptake at 2 h ([2]; Bone) of the same molecule?
Answer: 0.05 %ID/g

Question: What about the tissue uptake at 0.25 h ([2]; Heart) of the same molecule?
Answer: 1.68 ± 0.08 %ID/g

Question: And the tissue uptake at 0.5 h ([2]; Heart)?
Answer: 1.01 ± 0.07 %ID/g

Question: What about the tissue uptake at 1 h ([2]; Heart) of the same molecule?
Answer: 0.73 ± 0.07 %ID/g

Question: And the tissue uptake at 2 h ([2]; Heart)?
Answer: 0.03 %ID/g

Question: What about the tissue uptake at 0.25 h ([2]; Intestine) of the same molecule?
Answer: 0.48 ± 0.06 %ID/g

Question: And the tissue uptake at 0.5 h ([2]; Intestine)?
Answer: 0.56 ± 0.05 %ID/g

Question: And the tissue uptake at 1 h ([2]; Intestine)?
Answer: 0.39 ± 0.04 %ID/g

Question: And the tissue uptake at 2 h ([2]; Intestine)?
Answer: 0.38 ± 0.04 %ID/g

Question: What about the tissue uptake at 0.25 h ([2]; Kidneys) of the same molecule?
Answer: 11.9 ± 0.21 %ID/g

Question: And the tissue uptake at 0.5 h ([2]; Kidneys)?
Answer: 8.99 ± 0.13 %ID/g

Question: And the tissue uptake at 1 h ([2]; Kidneys)?
Answer: 8 ± 0.18 %ID/g

Question: And the tissue uptake at 2 h ([2]; Kidneys)?
Answer: 2.51 ± 0.1 %ID/g

Question: And the tissue uptake at 0.25 h ([2]; Liver)?
Answer: 0.79 ± 0.09 %ID/g

Question: What about the tissue uptake at 0.5 h ([2]; Liver) of the same molecule?
Answer: 0.58 ± 0.08 %ID/g

Question: And the tissue uptake at 1 h ([2]; Liver)?
Answer: 0.46 ± 0.03 %ID/g

Question: What about the tissue uptake at 2 h ([2]; Liver) of the same molecule?
Answer: 0.2 %ID/g

Question: And the tissue uptake at 0.25 h ([2]; Lung)?
Answer: 0.35 ± 0.06 %ID/g

Question: What about the tissue uptake at 1 h ([2]; Lung) of the same molecule?
Answer: 0.13 ± 0.01 %ID/g

Question: And the tissue uptake at 2 h ([2]; Lung)?
Answer: 0.02 %ID/g

Question: And the tissue uptake at 0.25 h ([2]; Muscle)?
Answer: 0.4 ± 0.05 %ID/g

Question: What about the tissue uptake at 2 h ([2]; Muscle) of the same molecule?
Answer: 0.02 %ID/g

Question: And the tissue uptake at 0.25 h ([2]; Pancreas)?
Answer: 12.8 ± 0.28 %ID/g

Question: And the tissue uptake at 0.5 h ([2]; Pancreas)?
Answer: 9.55 ± 0.18 %ID/g

Question: What about the tissue uptake at 1 h ([2]; Pancreas) of the same molecule?
Answer: 6.62 ± 0.22 %ID/g

Question: And the tissue uptake at 2 h ([2]; Pancreas)?
Answer: 5.31 ± 0.15 %ID/g

Question: What about the tissue uptake at 0.25 h ([2]; Salivary gland) of the same molecule?
Answer: 1.22 ± 0.1 %ID/g

Question: And the tissue uptake at 0.5 h ([2]; Salivary gland)?
Answer: 0.77 ± 0.04 %ID/g

Question: And the tissue uptake at 1 h ([2]; Salivary gland)?
Answer: 0.54 ± 0.03 %ID/g

Question: And the tissue uptake at 1 h ([2]; Skin)?
Answer: 0.08 %ID/g

Question: And the tissue uptake at 2 h ([2]; Skin)?
Answer: 0.03 %ID/g

Question: And the tissue uptake at 0.25 h ([2]; Spleen)?
Answer: 0.38 ± 0.04 %ID/g

Question: And the tissue uptake at 0.5 h ([2]; Spleen)?
Answer: 0.93 ± 0.07 %ID/g

Question: What about the tissue uptake at 1 h ([2]; Spleen) of the same molecule?
Answer: 0.16 ± 0.02 %ID/g

Question: And the tissue uptake at 2 h ([2]; Stomach)?
Answer: 0.17 ± 0.02 %ID/g

Question: What about the tissue uptake at 1 h ([2]; Thyroid) of the same molecule?
Answer: 0.16 ± 0.04 %ID/g

Question: What about the “Absorbed dose of kidneys” value [3] of the same molecule?
Answer: 0.082 mGy/MBq

Question: What about the Effective absorbed dose [3] of the same molecule?
Answer: 0.021 mSv/MBq

Question: Which results are given for `[Cl][68Ga]([Cl])[Cl]` [^68GaCl3]?
Answer: Percentage of injected dose per gram (%ID/g), Blood ([4]; 15 min after injection): 3.18±0.17 %ID/g; Percentage of injected dose per gram (%ID/g), Bone ([4]; 15 min after injection): 0.56±0.06 %ID/g; Percentage of injected dose per gram (%ID/g), Intestine ([4]; 15 min after injection): 0.71±0.06 %ID/g; Percentage of injected dose per gram (%ID/g), Kidneys ([4]; 15 min after injection): 0.70±0.09 %ID/g; Percentage of injected dose per gram (%ID/g), Liver ([4]; 15 min after injection): 0.91±0.02 %ID/g; Percentage of injected dose per gram (%ID/g), Spleen ([4]; 15 min after injection): 0.51±0.09 %ID/g; Percentage of injected dose per gram (%ID/g), Stomach ([4]; 15 min after injection): 0.41±0.11 %ID/g; Percentage of injected dose per gram (%ID/g), Blood ([4]; 30 min after injection): 2.98±0.12 %ID/g; Percentage of injected dose per gram (%ID/g), Bone ([4]; 30 min after injection): 0.91±0.10 %ID/g; Percentage of injected dose per gram (%ID/g), Intestine ([4]; 30 min after injection): 0.82±0.08 %ID/g; Percentage of injected dose per gram (%ID/g), Kidneys ([4]; 30 min after injection): 0.41±0.10 %ID/g; Percentage of injected dose per gram (%ID/g), Liver ([4]; 30 min after injection): 1.50±0.12 %ID/g; Percentage of injected dose per gram (%ID/g), Spleen ([4]; 30 min after injection): 0.70±0.06 %ID/g; Percentage of injected dose per gram (%ID/g), Stomach ([4]; 30 min after injection): 0.56±0.07 %ID/g; Percentage of injected dose per gram (%ID/g), Blood ([4]; 60 min after injection): 2.53±0.11 %ID/g; Percentage of injected dose per gram (%ID/g), Bone ([4]; 60 min after injection): 1.20±0.11 %ID/g; Percentage of injected dose per gram (%ID/g), Intestine ([4]; 60 min after injection): 0.89±0.05 %ID/g; Percentage of injected dose per gram (%ID/g), Kidneys ([4]; 60 min after injection): 1.42±0.12 %ID/g; Percentage of injected dose per gram (%ID/g), Liver ([4]; 60 min after injection): 0.78±0.08 %ID/g; Percentage of injected dose per gram (%ID/g), Spleen ([4]; 60 min after injection): 1.03±0.10 %ID/g; Percentage of injected dose per gram (%ID/g), Stomach ([4]; 60 min after injection): 1.21±0.09 %ID/g; Percentage of injected dose per gram (%ID/g), Blood ([4]; 120 min after injection): 2.44±0.14 %ID/g; Percentage of injected dose per gram (%ID/g), Bone ([4]; 120 min after injection): 1.05±0.09 %ID/g; Percentage of injected dose per gram (%ID/g), Intestine ([4]; 120 min after injection): 0.61±0.07 %ID/g; Percentage of injected dose per gram (%ID/g), Kidneys ([4]; 120 min after injection): 0.91±0.08 %ID/g; Percentage of injected dose per gram (%ID/g), Liver ([4]; 120 min after injection): 0.60±0.05 %ID/g; Percentage of injected dose per gram (%ID/g), Spleen ([4]; 120 min after injection): 1.43±0.12 %ID/g; Percentage of injected dose per gram (%ID/g), Stomach ([4]; 120 min after injection): 1.54±0.14 %ID/g; Activity content in the bone, maximum value [4, 5]: 1.20 %ID/g; Activity content in the stomach, maximum value [4, 5]: 1.54 %ID/g
